Measured values taken from article PMC5109225.

Key:
[1] = molecular target: Bemisia tabaci B Cyclophilin B protein (Bemisia tabaci B (endogenous in whitefly adults))
[2] = molecular target: Bemisia tabaci B Cyclophilin B protein (Bemisia tabaci B (endogenous in whitefly adults)); remark: listed apart in the source

Question: “Tomato yellow leaf curl virus coat protein (in virions) (natural protein)” was tested. Which TYLCV transmission rate to tomato test plants (one insect/plant) by whiteflies fed anti-CypB antibody (2 μg/μl in 25% sucrose, 24 h) before virus acquisition; control fed 25% sucrose: 60% [1] did it give?
Answer: 17%

Question: And the TYLCV transmission rate to tomato test plants (one insect/plant) by whiteflies fed the Cyp inhibitor Cyclosporin A (2 μg/μl in 25% sucrose, 24 h) before virus acquisition; control fed 25% sucrose: 60% [2]?
Answer: 27%
